In publication PMC3226441, “Generation of recombinant single-chain antibodies neutralizing the cytolytic activity of vaginolysin, the main virulence factor of Gardnerella vaginalis” (BMC Biotechnology, 2011):

B1: anti-VLY scFv 23A2 (VL-VH) (scFv, V domains shown)
VH: QVQLEQSGAELVRSGASVKISCKASGYTFPSYNMHWVKQTPGQGLEWIGYIYPGNGVTNYNQKFKGKATLTADTSSSTAYMQISSLTSEDSAVYFCAREEGGNLLWGHFAMDYWGQGTSVTVSS
VL: DIVMTQTTLSLPVSLGDQASISCRSSQSLVHSNGNTYLHWYLQKPGQSPKLLIYKVSNRFSGVPDRFSGSGSGTDFTLKISRVEAEDLGVYFCSQSTHVPPTFGGGTKLEIR
notes: also called 23A2-derived scFv (variant VL-VH); source: E. coli BL21(DE3), from inclusion bodies, renatured, purified (Ni-NTA); not shown: His6, N-terminal, kept
B2: anti-VLY scFv 23A2 (VH-VL) (scFv, V domains shown)
VH: B1 VH
VL: B1 VL
notes: also called 23A2-derived scFv (variant VH-VL); source: E. coli BL21(DE3), from inclusion bodies, renatured, purified (Ni-NTA); not shown: His6, N-terminal, kept
B3: anti-VLY scFv 9B4 (VL-VH) (scFv, V domains shown)
VH: QVQLEQSGPGLVAPSESLTITCTVSGFSLNSYGVHWVRQPPGKGLEWVGVMWAGGNTSYNSALMSRLSISKDNSKSQVFLKMNSLQTDDTAIYYCARARGAMDYWGQGTSVTVSS
VL: DIVMTQTTSHLSVSLGDRVTIACKASAHINNWLAWYQQKPGNAPSLLIAGATGLETGVPSRFSGSGSGKDFTLSISSLQTEDVATYYCQQYWDTPYTFGGGTKLEIR
notes: also called 9B4-derived scFv (variant VL-VH); source: E. coli BL21(DE3), from inclusion bodies, renatured, purified (Ni-NTA); not shown: His6, N-terminal, kept
B4: anti-VLY scFv 9B4 (VH-VL) (scFv, V domains shown)
VH: B3 VH
VL: B3 VL
notes: also called 9B4-derived scFv (variant VH-VL); source: E. coli BL21(DE3), from inclusion bodies, renatured, purified (Ni-NTA); not shown: His6, N-terminal, kept

Columns and labels:
[1] = target: T1, vaginolysin (VLY), recombinant (Gardnerella vaginalis); test: ELISA; indirect ELISA; recombinant purified VLY (5 μg/ml, 50 mM Na-carbonate pH 9.5) coated on MaxiSorp plates; scFv 50 μg/ml to 20 ng/ml, 1 h at RT; detected by anti-His5 MAb and HRP-labelled anti-mouse IgG; apparent Kd = molar concentration at the mid-point of the titration curve; details: both partners purified
T1 construct: also called recombinant VLY

[2] = target: T1, vaginolysin (VLY), recombinant; test: cell-based or functional assay

Row | Binder | Kd [1] | other [2]
1 | B1 | 92 nM | 110 nM
2 | B2 | 98 nM | 150 nM
3 | B3 | 11 nM | 37 nM
4 | B4 | 15 nM | 51 nM
